The values below come from patent US20170368168A1 (AGENUS, published 2017).

Test [1] addresses T1, human TIM-3 expressed on cells (human, UniProt Q8TDQ0 22-301).
T1 construct: also called T cell immunoglobulin and mucin domain-3; HAVCR2
T1 sequence: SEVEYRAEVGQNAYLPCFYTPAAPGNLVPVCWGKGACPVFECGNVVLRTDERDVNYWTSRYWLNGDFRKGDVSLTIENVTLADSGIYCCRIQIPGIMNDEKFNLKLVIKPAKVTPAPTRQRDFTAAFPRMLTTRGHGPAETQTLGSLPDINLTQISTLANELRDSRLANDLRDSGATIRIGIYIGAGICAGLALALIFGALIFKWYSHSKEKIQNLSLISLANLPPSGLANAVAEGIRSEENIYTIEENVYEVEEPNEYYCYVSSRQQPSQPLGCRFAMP
Briefly: flow cytometry, Jurkat cells ectopically expressing human TIM-3. (In general: A flow cytometer gives signals particle by particle.)

Test [2] concerns the target T2, recombinant human GITR Fc (R&D Systems, #689-GR) (human, UniProt Q9Y5U5 26-161).
T2 construct: also called rhGITR Fc; not shown: Fc part
T2 sequence (looked up): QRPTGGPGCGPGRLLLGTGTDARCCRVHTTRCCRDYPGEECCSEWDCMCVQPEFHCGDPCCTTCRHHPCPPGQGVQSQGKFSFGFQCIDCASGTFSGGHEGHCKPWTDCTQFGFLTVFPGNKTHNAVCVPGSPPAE
Description: Luminex suspension array, antigen coupled to beads.

Test [3] addresses T3, recombinant human DR3 Fc (R&D Systems, #943-D3) (human, UniProt Q93038 25-201).
T3 construct: also called rhDR3 Fc; not shown: Fc part
T3 sequence (looked up): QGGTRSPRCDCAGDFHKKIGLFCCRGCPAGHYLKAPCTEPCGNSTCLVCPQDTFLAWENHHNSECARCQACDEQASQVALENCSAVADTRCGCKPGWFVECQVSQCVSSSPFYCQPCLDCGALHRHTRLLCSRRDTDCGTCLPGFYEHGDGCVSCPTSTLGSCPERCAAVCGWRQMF
Briefly: Luminex suspension array, antigen coupled to beads.

In test [4] the target is T4, recombinant human TIM-4 His (R&D, Cat#2929-TM) (human, UniProt Q96H15 25-315).
T4 construct: also called rhTIM-4 His
T4 sequence (looked up): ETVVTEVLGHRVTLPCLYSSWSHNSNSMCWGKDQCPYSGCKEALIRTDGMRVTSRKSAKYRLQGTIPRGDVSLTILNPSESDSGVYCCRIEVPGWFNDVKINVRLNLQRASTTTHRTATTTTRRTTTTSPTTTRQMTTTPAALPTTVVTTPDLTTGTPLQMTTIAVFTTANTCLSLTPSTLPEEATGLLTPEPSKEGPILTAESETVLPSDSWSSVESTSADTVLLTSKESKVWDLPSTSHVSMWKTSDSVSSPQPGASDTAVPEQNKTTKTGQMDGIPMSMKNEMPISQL
Description: Luminex suspension array, antigen coupled to beads.

Test [5] addresses T5, recombinant mouse TIM-3 Fc (R&D Systems, #1529-TM) (mouse, UniProt Q8VIM0 20-191).
T5 construct: also called rmTIM-3 Fc; not shown: Fc part
T5 sequence (looked up): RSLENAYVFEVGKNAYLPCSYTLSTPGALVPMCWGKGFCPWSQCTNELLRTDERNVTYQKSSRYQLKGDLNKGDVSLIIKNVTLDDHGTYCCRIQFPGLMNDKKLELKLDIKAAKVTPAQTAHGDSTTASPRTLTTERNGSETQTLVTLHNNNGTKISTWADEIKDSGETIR
Briefly: Luminex suspension array, antigen coupled to beads.

Test [6] addresses T6, recombinant human CD137 Fc (in house produced material) (human, UniProt Q07011 24-186).
T6 construct: also called rhCD137 Fc; not shown: Fc part
Briefly: Luminex suspension array, antigen coupled to beads.

Test [7] concerns the target T7, recombinant human OX40 His (Sino Biological, #10481-H08H) (human, UniProt P43489 29-216).
T7 construct: also called rhOX40 His
T7 sequence (looked up): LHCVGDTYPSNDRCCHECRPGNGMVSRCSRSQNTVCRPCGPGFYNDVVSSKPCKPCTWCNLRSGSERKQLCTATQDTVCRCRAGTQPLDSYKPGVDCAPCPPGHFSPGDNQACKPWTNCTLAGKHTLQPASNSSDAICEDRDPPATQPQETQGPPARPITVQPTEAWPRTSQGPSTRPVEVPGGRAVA
Briefly: Luminex suspension array, antigen coupled to beads.

Test [8] deals with T8, recombinant human TIM-1 His (R&D Systems, Cat#1750-TM) (human, UniProt Q96D42 21-295).
T8 construct: also called rhTIM-1 His
T8 sequence (looked up): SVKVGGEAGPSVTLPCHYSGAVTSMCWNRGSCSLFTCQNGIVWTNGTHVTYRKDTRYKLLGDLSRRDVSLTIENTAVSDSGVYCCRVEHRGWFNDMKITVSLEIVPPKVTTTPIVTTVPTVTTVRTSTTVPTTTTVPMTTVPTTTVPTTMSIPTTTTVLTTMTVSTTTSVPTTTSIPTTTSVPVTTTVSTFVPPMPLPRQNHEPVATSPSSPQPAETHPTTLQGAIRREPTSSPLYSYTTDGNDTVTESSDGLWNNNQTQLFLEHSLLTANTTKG
Description: Luminex suspension array, antigen coupled to beads.

Test [9] addresses T1, human TIM-3 expressed on cells. Briefly: flow cytometry, Jurkat cells ectopically expressing human TIM-3; pab2188w is the weaker comparator.
Test [10] has the same target. Description: flow cytometry, 1624-5 cells expressing human TIM-3.
The target in test [11] is T9, recombinant human TIM-3 Fc (R&D Systems, Cat#2365-TM) (human, UniProt P01857-1 100-330 = IgG part).
T9 construct: also called rhTIM-3 Fc; human TIM-3/Fc chimera
Briefly: Luminex suspension array, antigen coupled to beads.

B1: AM-2 (IgG1 N297A) (antibody, V domains shown)
VH: EVQLVESGGGLVQPGGSLRLSCAASGFTFRQNAWSWVRRAPGKGLEWVSAISGSGGSTYYADSVKGRFTISRDNSKNTLYLQMNSLRAEDTAVYYCAKGGDYGGNYFDYWGQGTLVTVSS
VL: EIVLTQSPATLSLSPGERATLSCRASQSVSSYLAWYQQKPGQAPRLLIYDASNRATGIPASFSGSGSGTDFTLTISRLEPEDFAVYYCQQYGSSPLTFGGGTKVEIKR
B1: the binding result in [1] is “binds”; in test [2], “no binding (tested: 10000 ng/ml to 0.1 ng/ml)”; in test [3], “no binding (tested: 10000 ng/ml to 0.1 ng/ml)”; in test [4], “no binding (tested: 10000 ng/ml to 0.1 ng/ml)”; in test [5], “no binding (tested: 10000 ng/ml to 0.1 ng/ml)”; in test [6] it was “no binding (tested: 10000 ng/ml to 0.1 ng/ml)”. In addition, the binding result in [7] and in [8] was “no binding (tested: 10000 ng/ml to 0.1 ng/ml)” in each case.

B2: AM-6 (IgG1 N297A) (antibody, V domains shown)
VH: EVQLVESGGGLVQPGGSLRLSCAASGFTFARNAWSWVRRAPGKGLEWVSAISGSGGSTYYADSVKGRFTISRDNSKNTLYLQMNSLRAEDTAVYYCAKGGDYGGNYFDYWGQGTLVTVSS
VL: EIVLTQSPATLSLSPGERATLSCRASQSVSSYLAWYQQKPGQAPRLLIYDASNRATGIPASFSGSGSGTDFTLTISRLEPEDFAVYYCQQYGSSPLTFGGGTKVEIKR
B2: the binding result in [1] is on record as “binds”; in test [2], “no binding (tested: 10000 ng/ml to 0.1 ng/ml)”; in test [3] it was “no binding (tested: 10000 ng/ml to 0.1 ng/ml)”; in test [4] it was “no binding (tested: 10000 ng/ml to 0.1 ng/ml)”; in test [5], “no binding (tested: 10000 ng/ml to 0.1 ng/ml)”; in [6], “no binding (tested: 10000 ng/ml to 0.1 ng/ml)”. Further, the binding result in test [7] and in test [8] was “no binding (tested: 10000 ng/ml to 0.1 ng/ml)” each time.

B3: pab2188w (IgG1 N297A) (antibody, V domains shown)
VH: not shown
VL: EIVLTQSPATLSLSPGERATLSCRASQSVSSYLAWYQQKPGQAPRLLIYDASNRATGIPASFSGSGSGTDFTLTISRLEPEDFAVYYCQQYGSSPLTFGGGTKVEIKR
In the case of B3, the binding result in test [9] is “binds”; in test [2], “no binding (tested: 10000 ng/ml to 0.1 ng/ml)”; in test [3], “no binding (tested: 10000 ng/ml to 0.1 ng/ml)”; in [4], “no binding (tested: 10000 ng/ml to 0.1 ng/ml)”; in test [5], “no binding (tested: 10000 ng/ml to 0.1 ng/ml)”; in test [6] it was “no binding (tested: 10000 ng/ml to 0.1 ng/ml)”. Further, the binding result in [7] and in test [8] was “no binding (tested: 10000 ng/ml to 0.1 ng/ml)” in each case.

B4: pab2088 (IgG1) (antibody, V domains shown)
VH: not shown
VL: DIQMTQSPSSLSASVGDRVTITCRASQGISNYLAWYQQKPGKVPKLLIYAASTLQSGVPSRFSGSGSGTDFTLTISRLEPEDFAVYYCQQYGSSPLTFGGGTKVEIK
As for B4, the binding result in test [10] is “binds”; in test [4] it was “no binding (tested: 10 ng/ml, 100 ng/ml, and 1000 ng/ml)”; in test [8], “no binding (tested: 10 ng/ml, 100 ng/ml, and 1000 ng/ml)”; in test [11], “binds”.
